US12497460B2, “Anti-MSR1 antibodies and methods of use thereof” (REGENERON PHARMACEUTICALS, INC., priority 2018, dated 2025)
Blank lines part the entries; values can stand above or below the molecule they belong to.

How the values were obtained:
[1] = molecular target: T1, MSR1-mediated Dil-AcLDL uptake in HEK293.Myc.hMSR1 cells (Homo sapiens, UniProt P21757); test: Ligand uptake assay, Dil-AcLDL; format: cell-based; settings: 10 μg/mL Dil-AcLDL; for Dil-Acetylated LDL % Inhibition: maximum inhibition
T1 construct: expressed in transfected cells; host or cells: HEK293 (lentiviral transduction, hygromycin selection)
T1 sequence (P21757 1-451): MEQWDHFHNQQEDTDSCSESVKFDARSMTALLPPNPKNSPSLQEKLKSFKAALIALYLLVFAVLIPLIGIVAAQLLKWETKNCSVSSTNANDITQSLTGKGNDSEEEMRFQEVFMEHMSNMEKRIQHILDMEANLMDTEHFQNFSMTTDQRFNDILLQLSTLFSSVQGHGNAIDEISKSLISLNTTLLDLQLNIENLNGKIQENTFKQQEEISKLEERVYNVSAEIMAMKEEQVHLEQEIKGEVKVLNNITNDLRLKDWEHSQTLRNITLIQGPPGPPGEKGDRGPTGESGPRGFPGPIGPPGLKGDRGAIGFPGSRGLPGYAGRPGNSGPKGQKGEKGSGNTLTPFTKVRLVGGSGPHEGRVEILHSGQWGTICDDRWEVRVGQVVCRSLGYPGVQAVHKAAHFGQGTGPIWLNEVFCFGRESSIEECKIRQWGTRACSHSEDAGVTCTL
Procedure: A bioassay was generated to assess the ability of the exemplary anti-MSR1 antibodies to regulate the uptake of certain MSR1 ligands.
Generation of MSR1-expressing cell lines for assay. […] The resulting cell line, referred to here as “HEK293.Myc.hMSR1”, was selected and maintained in DMEM containing 10% FIBS, NEAA, penicillin/streptomycin, L-glutamine, and 100 μg/mL hygromycin.
Ligand uptake assay. […] After 30 minutes, either oxidized or acetylated low-density lipoprotein (LDL) labeled with 1,1′dioctadecyl-3,3,3′,3′-tetramethylindocarbocyanine perchlorate (referred to as “Dil-OxLDL” or “Dil-AcLDL,” respectively) was added to the cells at a constant concentration of 10 μg/mL. […] Results were analyzed using nonlinear regression (4-parameter logistics) with the Prism 7 program to obtain EC50 and IC50 values. The percentage of inhibition was calculated with the Relative Fluorescent Unit (RFU) values by using the following equation: […]
In the equation, “RFUBaseline” is the fluorescence value from the cells treated with 10 μg/mL ligand without antibodies, “RFUInhibition” is the minimum fluorescence value with for a particular antibody with 10 μg/mL ligand, and “RFUBackground” is the fluorescence value from cells without any ligand or antibodies.

[2] = molecular target: HMM-mfMSR1 (monkey MSR1 extracellular domain); test: Biacore surface plasmon resonance binding kinetics of anti-MSR1 mAbs, antibody-capture format; settings: analyte HMM-mfMSR1, NB = no binding observed; for kd: * = no dissociation observed, kd manually fixed at 1.00E−05; for ka: antibody-capture format; for Kd: calculated from kinetic rates; for t½: dissociative half-life
Procedure: (§1) Binding affinities and kinetic constants of human anti-MSR1 antibodies for different MSR1 reagents were determined by real-time surface plasmon resonance (Biacore 4000). All binding studies were performed in 10 mM HEPES, 150 mM NaCl, 3 mM EDTA, and 0.05% v/v Surfactant Tween-20, pH 7.4 (HBS-ET) running buffer at 25° C. and 37° C.
(§2) The association rate (ka) and dissociation rate (kd) were determined by fitting the real-time binding sensorgrams to a 1:1 binding model with mass transport limitation using Scrubber 2.0c curve-fitting software. Binding dissociation equilibrium constant (KD) and dissociative half-life (t½) were calculated from the kinetic rates as: […]

[3] = molecular target: T2, His9-hMSR1 (human MSR1 extracellular domain) (Homo sapiens, UniProt P21757); test: as above; settings: analyte His9-hMSR1, NB = no binding observed; for kd: * = no dissociation observed, kd manually fixed at 1.00E−05; for ka: antibody-capture format; for Kd: calculated from kinetic rates; for t½: dissociative half-life
T2 construct: human MSR1 extracellular domain expressed with a N-terminal nonahistidine tag; His9 (nonahistidine) (N); purchased R&D Systems 2708-MS
T2 sequence (P21757 77-451 limits assumed): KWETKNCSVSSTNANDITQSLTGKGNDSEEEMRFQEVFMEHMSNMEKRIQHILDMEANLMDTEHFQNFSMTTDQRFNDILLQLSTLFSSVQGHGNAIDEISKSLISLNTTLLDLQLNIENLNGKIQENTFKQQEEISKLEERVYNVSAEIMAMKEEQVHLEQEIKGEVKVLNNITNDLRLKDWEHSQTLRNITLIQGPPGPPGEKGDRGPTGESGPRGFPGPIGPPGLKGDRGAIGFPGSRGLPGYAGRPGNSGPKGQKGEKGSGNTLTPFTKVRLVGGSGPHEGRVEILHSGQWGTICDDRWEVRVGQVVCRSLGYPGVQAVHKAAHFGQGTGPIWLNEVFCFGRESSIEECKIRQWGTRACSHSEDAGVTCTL
Procedure: as §1, §2

[4] = system: B16F10.9 cells (MSR1 negative); test: Flow cytometry binding, MSR1 negative cells; format: cell-based, mouse; settings: 10 μg/mL antibody
Procedure: Relative cell surface binding of the anti-MSR1 antibodies to mouse MSR1 expressing cells was determined by flow cytometry using MSR1 positive RAW264.7 cells (ATCC, Catalog #TIB-71) and MSR1 negative B16F10.9 cells (Lin et al. 1998. PNAS 95:8829-8834). For the assay, cells were plated in PBS without calcium and magnesium (VWR Cat #45000-446) and 2% FBS (Saradigm Cat #1500-500) (Staining Buffer) in 96 well V-bottom plates (Axygen Scientific, Cat #P-96-450-V-C-S). To block binding to Fc receptors, RAW264.7 cells were incubated for 30 minutes at 4° C. with 500 μg/mL mouse IgG (Jackson ImmunoResearch, Cat #015-000-003) diluted in staining buffer, while B16F10.9 cells remained in staining buffer. Following Fc receptor blocking, 10 μg/mL of anti-MSR1 antibodies or an isotype control antibody were added to the cells and were subsequently incubated for 30 minutes on ice. For a positive control, a commercial anti-mouse MSR1 (Sino Biological, Cat #50129-R004) antibody was used, while a rabbit IgG antibody (Thermo Scientific, Cat #26102) was used as a negative control. […] Cells were subsequently washed and fixed using a 50% solution of Cytofix (BD Biosciences, Cat #554655) diluted in PBS. […] The signal to noise (S/N) was determined by calculating the ratio of the anti-MSR1 antibodies or the control antibodies MFI to the unstained sample MFI (Table 11).

[5] = molecular target: T3, PMA-treated THP-1 cells (endogenously expressed human MSR1) (Homo sapiens, UniProt P21757); test: Electrochemiluminescence antibody binding assay on MSR1-expressing cells; format: cell-based
T3 construct: endogenous in cells; host or cells: THP-1 cells differentiated with PMA
T3 sequence (P21757 1-451): T1 sequence (P21757 1-451)

parental HEK293 cells = test: Electrochemiluminescence antibody binding assay, non-specific binding control cells; format: cell-based, human

Chain of HMM-mfMSR1 (monkey MSR1 extracellular domain) (as listed by the source): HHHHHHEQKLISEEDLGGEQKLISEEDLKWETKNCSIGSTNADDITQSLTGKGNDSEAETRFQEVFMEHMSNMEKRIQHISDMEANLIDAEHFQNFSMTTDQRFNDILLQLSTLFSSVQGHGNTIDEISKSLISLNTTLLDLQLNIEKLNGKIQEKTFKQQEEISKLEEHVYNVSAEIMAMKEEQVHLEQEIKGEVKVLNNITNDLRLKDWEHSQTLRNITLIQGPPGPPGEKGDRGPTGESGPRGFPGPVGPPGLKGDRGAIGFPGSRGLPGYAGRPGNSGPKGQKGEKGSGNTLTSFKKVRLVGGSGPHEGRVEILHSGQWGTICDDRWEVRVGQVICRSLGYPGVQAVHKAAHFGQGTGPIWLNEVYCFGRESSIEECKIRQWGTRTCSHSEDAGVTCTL

Dil-Acetylated LDL % Inhibition [1]: 62% | kd ([2]; 25° C.): 9.03e-05 s⁻¹ | ka ([2]; 25° C.): 240000 M⁻¹ s⁻¹ | Kd ([2]; 25° C.): 376 pM | t½ ([2]; 25° C.): 2.13 h | kd ([2]; 37° C.): 0.000109 s⁻¹ | ka ([2]; 37° C.): 587000 M⁻¹ s⁻¹ | Kd ([2]; 37° C.): 186 pM | t½ ([2]; 37° C.): 1.77 h | kd ([3]; 25° C.): 5.88e-05 s⁻¹ | ka ([3]; 25° C.): 399000 M⁻¹ s⁻¹ | Kd ([3]; 25° C.): 147 pM | t½ ([3]; 25° C.): 3.27 h | kd ([3]; 37° C.): 0.000115 s⁻¹ | ka ([3]; 37° C.): 534000 M⁻¹ s⁻¹ | Kd ([3]; 37° C.): 215 pM | t½ ([3]; 37° C.): 1.68 h
B1: H1H21231N-N297Q: modified version of "21231N (H1H21231N-N297Q) anti-MSR1 antibodies" with "a N297Q single point mutation" (antibody, V domains shown)
VH: EVQLVESGGGLVQPGGSLRLSCAASGFTFSDHYMDWVRQAPGKGLEWVGRTRNKANSHTTEYTASVTGRFTISRDDSRNSLYLQMNSLKTEDTAVYYCVRAGIIGTLFDYWGQGTLVTVSS
VL: DIQMTQFPSSLSASVGDRVTITCRASQSISSFLNWFQQKPGKAPKFLIYAASSLQSGVPSRFSGSGSGTDFTLTISSLQPEDFATYYCQQSYSSPPITFGQGTRLEIKR
B16F10.9 MFI [4]: 3374

Dil-Acetylated LDL IC50 [1]: no inhibition | maximum inhibition of Dil-AcLDL uptake [1]: no inhibition | Dil-Acetylated LDL % Inhibition [1]: no inhibition | Ratio of 11 nM Antibody Binding Signal (RLU) to isotype control, PMA-treated THP-1 [5]: 9 | kd ([2]; 25° C.): 0.000144 s⁻¹ | ka ([2]; 25° C.): 352000 M⁻¹ s⁻¹ | kd ([2]; 37° C.): 0.000842 s⁻¹ | ka ([2]; 37° C.): 2.25e+06 M⁻¹ s⁻¹ | kd ([3]; 25° C.): 0.00103 s⁻¹ | ka ([3]; 25° C.): 375000 M⁻¹ s⁻¹ | kd ([3]; 37° C.): 0.00288 s⁻¹ | ka ([3]; 37° C.): 776000 M⁻¹ s⁻¹
B2: H1H27739P-N297Q: anti-MSR1 antibody "made with an N297Q single point mutation in human Fcγ portion" (antibody, V domains shown)
VH: EVQLVESGGGLVQPGGSLRLSCTASGFTFSSYAMSWVRQAPGKGLEWVSAISGTGSSTYFTDSVKGRFAISRDNSKNTLYLQMNSLRAEDTAVYYCAKDGEWLSTVTLFDYWGQGTLVTVSS
VL: EIVMTQSPATLSVSPGERATLSCRASQSVSSNLAWYQQKPGQAPRLLIYGASTRATGIPARFSGSGSGTDFTLTISSLQSEDFALYYCQQYFIWPPHPTFGPGTKVDIKR
B16F10.9 MFI [4]: 3580

kd ([2]; 25° C.): 0.00212 s⁻¹ | ka ([2]; 25° C.): 269000 M⁻¹ s⁻¹ | kd ([2]; 37° C.): 0.00349 s⁻¹ | ka ([2]; 37° C.): 407000 M⁻¹ s⁻¹ | kd ([3]; 25° C.): 0.00107 s⁻¹ | ka ([3]; 25° C.): 197000 M⁻¹ s⁻¹ | kd ([3]; 37° C.): 0.00204 s⁻¹ | ka ([3]; 37° C.): 239000 M⁻¹ s⁻¹
B3: H1H27729P-N297Q: anti-MSR1 antibody "made with an N297Q single point mutation in human Fcγ portion" (antibody, V domains shown)
VH: QVQLVESGGGLVKPGGSLRLSCAASGFIFSDYYMSWIRQAPGKGLEWVSYISSSGTTIYGDSVKGRFTMSRDNAKNSLYLQMNSLRAEDTAVYYCARNYALFDYWGQGTLVTVSS
VL: DIQMTQSPSSLSASVGDRVTITCQASQDISKYLNWYQQKPGKAPKLLIYYTSNLETGVPSRFSGSGSGTDFTFTISSLQPEDIATYYCHQSDYLPFTFGPGTKVDIKR
B16F10.9 MFI [4]: 3459 | Ratio of 11 nM Antibody Binding Signal (RLU) to isotype control, HEK293 (parental HEK293 cells): 3

kd ([2]; 25° C.): 0.000874 s⁻¹ | ka ([2]; 25° C.): 231000 M⁻¹ s⁻¹ | kd ([2]; 37° C.): 0.00228 s⁻¹ | ka ([2]; 37° C.): 657000 M⁻¹ s⁻¹ | kd ([3]; 25° C.): 0.000652 s⁻¹ | ka ([3]; 25° C.): 243000 M⁻¹ s⁻¹ | kd ([3]; 37° C.): 0.00276 s⁻¹ | ka ([3]; 37° C.): 513000 M⁻¹ s⁻¹
B4: H1H27747P-N297Q (antibody, V domains shown)
VH: QVQLVESGGAVVQPGRSLRLSCAASGFTFSYYGMHWVRQAPGKGLEWVAVISYDGSKKYYADSVKGRFTISRDNSKNTLYLQMNSLRAEDTAVYYCAKDLTVDFYYGMDVWGQGTTVTVSS
VL: DIQMTQSPSSVSASVGDRVTITCRASQGISSWLAWYQQKPGKAPKLLIYATSSLQSGAPSRFSGSGSGTDFTLTISSLQPEDFATYFCQQANSFPYTFGQGTKLEIKR
B16F10.9 MFI [4]: 3875
